The target in this assay is murine CCR6 expressed on HEK293 cells (HEK293/CCR6) (murine) (UniProt O54689). Put plainly: cell-based or functional assay.

Consider “mDF3βsFv38, murine β-defensin 3 fusion with sFv38 (from UniProt Q9WTL0 23-63)”, for which the chemotaxis of murine bone marrow derived immature DC, peak activity was 100 ng/mL.
The substance “mDF2βsFv38, murine β-defensin 2 fusion with sFv38 (from UniProt P82020 21-71)” came in with a chemotaxis of murine bone marrow derived immature DC, peak activity of 10 ng/mL.

(Values after patent US20050095257A1.)
